# Publication PMC12204462
# Test system: AsCas12a
# Test: BLI
# Details: not stated in material
row,Substance,Kd [nM]
1,crRNA (BLI),3.7
2,ΨDNA (cDNA with 3' handle; BLI),24.5
3,cDNA with 5' handle,< 37
